T1: GAL4AD protein (UniProt P04386 768-881)
T1 construct: domain: GAL4AD
T1 sequence (looked up): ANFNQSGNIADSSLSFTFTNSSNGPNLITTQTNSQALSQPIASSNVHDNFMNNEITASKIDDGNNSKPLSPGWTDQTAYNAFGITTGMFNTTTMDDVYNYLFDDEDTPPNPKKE

B1: GAL4BD-N1 fragment (1762-1829) fusion protein (other)
chain: MKLLSSIEQACDICRLKKLKCSKEKPKCAKCLKNNWECRYSPKTKRSPLTRAHLTEVESRLERLEQLFLLIFPREDLDMILKMDSLQDIKALLTGLFVQDNVNKDAVTDRLASVETDMPLTLRQHRISATSSSEESSNKGQRQLTVSPEFRRQHGQLWFPEGFKVSEASKKKRREPLGEDSVGLKPLKNASDGALMDDNQNEWGDEDLETKKFRFEDPSTCSQANSGRISYDL
notes: Expressed in yeast strain AH109 from pLOR67 (yeast two-hybrid bait); Notch1 numbering per AAG33848; also called bait protein
B2: GAL4AD fusion protein encoded by plasmid 8-7 (splice variant of the human homologue of mouse C2PA) (other, not shown: small tags and cut ends)
chain: GRATQGAHARLTGPVRAPAAGGELGFHGAAAEAGPAAMNRFNGLCKVCSERRYRQITIPRGKDGFGFTICCDSPVRVQAVDSGGPAERAGLQQLDTVLQLNERPVEHWKCVELAHEIRSCPSEIILLVWRMVPQVKPGPDGGVLRRASCKSTHDLQSPPNKREKNCTHGVQARPEQRHSCHLVCDSSDGLLLGGWERYTEVAKRGGQHTLPALSRATAPTDPNYIILAPLNPGSQLLRPVYQEDTIPEESGSPSKGKSYTGLGKKSRLMKTVQTMKGHGNYQNCPVVRPHATHSSYGTYVTLAPKVLVFPVFVQPLDLCNPARTLLLSEELLLYEGRNKAAEVTLFAYSDLLLFTKEDEPGRCDVLRNPLYLQSVKLQEGSSEDLKFCVLYLAEKAECLFTLEAHSQEQKKRVCWCLSENIAKQQQLAASPPDSKKLHPFGSLQQEMGPVNSTNATQDRSFTSPGQTLIG
notes: Prey from a human spleen cDNA library (Clontech); also called colony 8-7

Tests used:
GAL4AD protein = molecular target: T1, GAL4AD protein; assay: yeast two-hybrid bait specificity check in AH109pLOR67
GAL4BD alone = molecular target: T2, GAL4BD alone (UniProt P04386 1-147); assay: yeast two-hybrid (HIS3, ADE2, LacZ reporters) in AH109
T2 construct: domain: GAL4BD; Three empty GAL4BD expression constructs were used as controls; also called pBD-GAL4cam; pBRIDGE
Description: AH109pLOR67 and AH109 transformed with GAL4BD expression constructs pBD-GAL4cam (Stratagene), pBRIDGE (Clontech) and pLOR32 were used to assess whether the GAL4AD fusion proteins encoded by plasmids 8-2 and 8-7 interacted in a repeatable and specific manner with the Notch1(₁₇₆₂₋₁₈₂₉) domain of the GAL4BDN1(₁₇₆₂₋₁₈₂₉) fusion protein.
These yeast stains along with AH109pLOR67 were then transformed with either 8-2 (CBF 1 fragment) or 8-7 and plated on —WL, —WLH, —WLHA, —WLHAXαGAL plates. An alternative to XaGAL was also employed to assess LacZ expression. Yeast colonies grown on —WLHA plates, were transferred to filter paper by placing the appropriately sized piece of 3 mm Whatman paper over the screen plate and pressing down firmly over the whole surface of the plate. The orientation of the paper was then marked and the paper lifted with a jerking action, lifting the colonies from the agar. The yeast colonies were permeabilised by placing the filter papers in liquid nitrogen, and then allowing them to thaw. This cycle was repeated three times in total. 1.8 ml Z buffer containing X-gal was added to each filter paper, the papers were then monitored for the next 6 hours for the production of blue colour.

Row | Binder | binding result (GAL4AD protein) | binding result (GAL4BD alone)
1 | B1 | no binding | 
2 | B2 |  | no binding
